Laboratory results as given in paper PMC6128205.

Target: T1, SlyA (Shigella flexneri serotype 2a 2457T) (UniProt P0A8W4)
T1 sequence: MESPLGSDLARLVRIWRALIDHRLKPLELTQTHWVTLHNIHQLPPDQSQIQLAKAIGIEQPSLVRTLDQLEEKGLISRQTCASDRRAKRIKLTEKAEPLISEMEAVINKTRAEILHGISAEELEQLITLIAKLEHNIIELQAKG
Experiment: EMSA
Conditions: 10 mM Tris-HCl pH 7.5, 100 mM KCl, 1 mM EDTA, 0.1 mM DTT, 5% glycerol, 10 ug/mL BSA, room temperature 30 min

Sequence: CAGTCTGAACGGGGTGTACACGCCGTATATGCAGGATAAACAATAATTAATTTGATCGCCCGAACAGGAATGTTTGGGCGATTTTTATTACGATAATAAAGTCTGTTTTTAATATTATCATGTTAAATGTTTATATTATAAAAAGTCGTTTTTCTGCTTAGGATTTTGTTATTTAAATTAAGCCTGTAATGCCTTGCTTCCATTGCGGATAAATCCTACTTTTTTATTGCCTTCAAATAAATTTAAGGAGTTCGAAATGGACCAGAAGCTGTTAACGGATTTCCGCTCAG (double strand) [PgadA]
- binding: binds
